Broadly, the Kd is the concentration at which binding is half-saturated. Read a low Kd as higher affinity. As a reminder, the Km is the substrate concentration at which the rate is half of its maximum.

The values below come from publication PMC6327041, “Histone H3 binding to the PHD1 domain of histone demethylase KDM5A enables active site remodeling” (Nature Communications, 2019).

Data set [1] concerns the target C-terminally 5-carboxyfluorescein (5-FAM) conjugated Ac-H3K4me3 31mer peptide. Kind of data set: fluorescence polarisation; direct FP: Ac-H3K4me3-fluorescein 31mer with varying KDM5A_(1-797); 400 µM MnCl2 and 400 µM N-OG; no effector peptide; Kd read at 1 min (the signal decreases over time).
Data set [2] shares this target. Kind of data set: fluorescence polarisation; direct FP: Ac-H3K4me3-fluorescein 31mer with varying KDM5A_(1-797); 400 µM MnCl2 and 400 µM N-OG; with 350 µM H3 10mer effector peptide; Kd read at 1 min (the signal is stable for at least 1 h). On the technique in general: Fluorescence polarisation rises when a labelled molecule tumbles more slowly, as on binding a larger partner.

Substrate in data set [3]: C[C@H](N)C(=O)N[C@@H](CCCNC(=N)N)C(=O)N[C@H](C(=O)N[C@@H](CCCC[N+](C)(C)C)C(=O)N[C@@H](CCC(N)=O)C(=O)N[C@H](C(=O)N[C@@H](C)C(=O)N[C@@H](CCCNC(=N)N)C(=O)N[C@@H](CCCCN)C(=O)N[C@@H](CO)C(=O)O)[C@@H](C)O)[C@@H](C)O
In words: KDM5A demethylation, FDH-coupled formaldehyde release assay. In kind it is biochemical, human. Particulars: other: H3K4me3 10mer as substrate (Figure S3, response to reviewers).

B1: KDM5A_(1-797) (enzyme)
chain: MAGVGPGGYAAEFVPPPECPVFEPSWEEFTDPLSFIGRIRPLAEKTGICKIRPPKDWQPPFACEVKSFRFTPRVQRLNELEAMTRVRLDFLDQLAKFWELQGSTLKIPVVERKILDLYALSKIVASKGGFEMVTKEKKWSKVGSRLGYLPGKGTGSLLKSHYERILYPYELFQSGVSLMGVQMPNLDLKEKVEPEVLSTDTQTSPEPGTRMNILPKRTRRVKTQSESGDVSRNTELKKLQIFGAGPKVVGLAMGTKDKEDEVTRRRKVTNRSDAFNMQMRQRKGTLSVNFVDLYVCMFCGRGNNEDKLLLCDGCDDSYHTFCLIPPLPDVPKGDWRCPKCVAEECSKPREAFGFEQAVREYTLQSFGEMADNFKSDYFNMPVHMVPTELVEKEFWRLVSSIEEDVIVEYGADISSKDFGSGFPVKDGRRKILPEEEEYALSGWNLNNMPVLEQSVLAHINVDISGMKVPWLYVGMCFSSFCWHIEDHWSYSINYLHWGEPKTWYGVPSHAAEQLEEVMRELAPELFESQPDLLHQLVTIMNPNVLMEHGVPVYRTNQCAGEFVVTFPRAYHSGFNQGYNFAEAVNFCTADWLPIGRQCVNHYRRLRRHCVFSHEELIFKMAADPECLDVGLAAMVCKELTLMTEEETRLRESVVQMGVLMSEEEVFELVPDDERQCSACRTTCFLSALTCSCNPERLVCLYHPTDLCPCPMQKKCLRYRYPLEDLPSLLYGVKVRAQSYDTWVSRVTEALSANFNHKKDLIELRVMLEDAEDRKYPENDLFRKLRDAVKEAETCASV
With B1, the Kd in data set [1] was 56.9 µM; in data set [2] it was 62.5 µM.

B2: KDM5A1-797 (Homo sapiens) (protein)
chain: MAGVGPGGYAAEFVPPPECPVFEPSWEEFTDPLSFIGRIRPLAEKTGICKIRPPKDWQPPFACEVKSFRFTPRVQRLNELEAMTRVRLDFLDQLAKFWELQGSTLKIPVVERKILDLYALSKIVASKGGFEMVTKEKKWSKVGSRLGYLPGKGTGSLLKSHYERILYPYELFQSGVSLMGVQMPNLDLKEKVEPEVLSTDTQTSPEPGTRMNILPKRTRRVKTQSESGDVSRNTELKKLQIFGAGPKVVGLAMGTKDKEDEVTRRRKVTNRSDAFNMQMRQRKGTLSVNFVDLYVCMFCGRGNNEDKLLLCDGCDDSYHTFCLIPPLPDVPKGDWRCPKCVAEECSKPREAFGFEQAVREYTLQSFGEMADNFKSDYFNMPVHMVPTELVEKEFWRLVSSIEEDVIVEYGADISSKDFGSGFPVKDGRRKILPEEEEYALSGWNLNNMPVLEQSVLAHINVDISGMKVPWLYVGMCFSSFCWHIEDHWSYSINYLHWGEPKTWYGVPSHAAEQLEEVMRELAPELFESQPDLLHQLVTIMNPNVLMEHGVPVYRTNQCAGEFVVTFPRAYHSGFNQGYNFAEAVNFCTADWLPIGRQCVNHYRRLRRHCVFSHEELIFKMAADPECLDVGLAAMVCKELTLMTEEETRLRESVVQMGVLMSEEEVFELVPDDERQCSACRTTCFLSALTCSCNPERLVCLYHPTDLCPCPMQKKCLRYRYPLEDLPSLLYGVKVRAQSYDTWVSRVTEALSANFNHKKDLIELRVMLEDAEDRKYPENDLFRKLRDAVKEAETCASV
notes: KDM5A1-797 was cloned into a pFASTBAC HTA vector; His (N, cleaved yes); made in house; host or cells: Sf21 insect cells (baculovirus)
As to B2, in data set [3], the Michaelis-Menten constant (Km) is 770 µM.
